Assay results: IntAct's records for PubMed 11729193

B1: Cell death abnormality protein 1 (Caenorhabditis elegans), Q9XWD6 (parent)
chain: MRLILLVLLATWQVVVDTRAPTFPDKLTQQLQQQGTTEPQGDHVCTVKTIVDDYELKKVIHTVVYNDTEQCLNPLTGFQCTVEKRGQKASYQRQLVKKEKYVKQCCDGYYQTKDHFCLPDCNPPCKKGKCIEPGKCECDPGYGGKYCASSCSVGTWGLGCSKSCDCENGANCDPELGTCICTSGFQGERCEKPCPDNKWGPNCVKSCPCQNGGKCNKEGKCVCSDGWGGEFCLNKCEEGKFGAECKFECNCQNGATCDNTNGKCICKSGYHGALCENECSVGFFGSGCTQKCDCLNNQNCDSSSGECKCIGWTGKHCDIGCSRGRFGLQCKQNCTCPGLEFSDSNASCDAKTGQCQCESGYKGPKCDERKCDAEQYGADCSKTCTCVRENTLMCAPNTGFCRCKPGFYGDNCELACSKDSYGPNCEKQAMCDWNHASECNPETGSCVCKPGRTGKNCSEPCPLDFYGPNCAHQCQCNQRGVGCDGADGKCQCDRGWTGHRCEHHCPADTFGANCEKRCKCPKGIGCDPITGECTCPAGLQGANCDIGCPEGSYGPGCKLHCKCVNGKCDKETGECTCQPGFFGSDCSTTCSKGKYGESCELSCPCSDASCSKQTGKCLCPLGTKGVSCDQKCDPNTFGFLCQETVTPSPCASTDPKNGVCLSCPPGSSGIHCEHNCPAGSYGDGCQQVCSCADGHGCDPTTGECICEPGYHGKTCSEKCPDGKYGYGCALDCPKCASGSTCDHINGLCICPAGLEGALCTRPCSAGFWGNGCRQVCRCTSEYKQCNAQTGECSCPAGFQGDRCDKPCEDGYYGPDCIKKCKCQGTATSSCNRVSGACHCHPGFTGEFCHALCPESTFGLKCSKECPKDGCGDGYECDAAIGCCHVDQMSCGKAKQEFEALNGAGRSTGLTWFFVLLIVALCGGLGLIALFYRNKYQKEKDPDMPTVSFHKAPNNDEGREFQNPLYSRQSVFPDSDAFSSENNGNHQGGPPNGLLTLEEEELENKKIHGRSAAGRGNNDYASLDEVAGEGSSSSASASASRRGLNSSEQSRRPLLEEHDEEEFDEPHENSISPAHAVTTSNHNENPYADISSPDPVTQNSANKKRAQDNLYT
partner: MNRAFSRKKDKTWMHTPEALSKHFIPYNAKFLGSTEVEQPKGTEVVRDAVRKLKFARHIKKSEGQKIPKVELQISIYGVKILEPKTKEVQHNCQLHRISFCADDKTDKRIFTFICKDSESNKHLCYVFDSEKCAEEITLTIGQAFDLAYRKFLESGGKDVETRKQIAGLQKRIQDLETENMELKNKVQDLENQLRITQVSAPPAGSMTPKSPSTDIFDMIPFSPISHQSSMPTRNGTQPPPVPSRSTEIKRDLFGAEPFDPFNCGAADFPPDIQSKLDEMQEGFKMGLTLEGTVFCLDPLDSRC
B2: Cell death abnormality protein 1 (Caenorhabditis elegans), Q9XWD6 (parent)
chain: B1 chain
partner: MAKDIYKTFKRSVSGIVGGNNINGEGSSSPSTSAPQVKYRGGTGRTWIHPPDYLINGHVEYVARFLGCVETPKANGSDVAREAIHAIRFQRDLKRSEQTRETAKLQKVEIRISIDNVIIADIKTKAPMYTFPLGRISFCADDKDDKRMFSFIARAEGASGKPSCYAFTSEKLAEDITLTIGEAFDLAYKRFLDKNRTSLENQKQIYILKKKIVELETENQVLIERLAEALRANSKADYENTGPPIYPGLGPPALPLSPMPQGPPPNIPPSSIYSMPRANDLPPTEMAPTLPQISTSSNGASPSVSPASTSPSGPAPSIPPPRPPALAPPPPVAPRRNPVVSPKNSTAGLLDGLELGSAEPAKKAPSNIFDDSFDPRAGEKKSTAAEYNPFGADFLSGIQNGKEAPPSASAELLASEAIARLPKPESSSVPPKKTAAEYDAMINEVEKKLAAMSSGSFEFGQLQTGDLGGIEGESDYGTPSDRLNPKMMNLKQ

Variants of: B1
Conditions: with gulp1_human GULP1, Q9UBP9

Variant	effect of a mutation on the interaction
N962A	disrupting interaction strength

Variants of: B2
Conditions: with ced6_caeel ced-6, O76337

Variant	effect of a mutation on the interaction
N962A	disrupting interaction strength
